Laboratory results as given in the DeepSol protein solubility set.

Assay: soluble on expression in E. coli; label from the status in PepcDB or PDB records

Sequence	soluble on expression in E. coli
MSLGRQEMDEHVAIETPYAIALNDRVIGSSMVLPVDLEEFGAGFLFGQGYIKKAEEIREILVCPQGRISVYADVENEEPREVIITSGCGGTGKIPKEMLEGEFAPLADYCLPFAEIKSFIREALHSSPLGPQTHCVHGCGLWNNGRLQVYHEDVGRHNAVDKVLGSILLGRASNNSAVYTTGRLTSDMVLKCARIGIPIIMSRTSPSSLGLALAKRSGATLVAYSRPERINVFNAPERILTEGHHHHHH	not soluble
IKNFSYGVKFVLSDAQQKILKYNNPDKSLSNPYYEGQKLGEIWGYKTIGIAQSDEEMNQHLANAKQPMGQKWAAGDIMYADLDNSGSVDQGNYKVGDSGDWQIIGNNTPRFNYGITIDAAWKGLDFRAFVQGIGKRDYWLNGPYFWGFSGGGEWASAGFKEHWDFWRPEGDPLGANTNSYFARVIRGTSKNQQRQTRYLQDASYWRLKNIQIGYTLPKVWTKKAGMESVRVYVSGDNLLTVSDITGVFDPENLGTQWTDPGKVYPLQKVIAIGLTVNF	not soluble
MRFPELEELKNRRTLKWTRFPEDVLPLWVAESDFGTCPQLKEAMADAVEREVFGYPPDATGLNDALTGFYERRYGFGPNPESVFAIPDVVRGLKLAIEHFTKPGSAIIVPLPAYPPFIELPKVTGRQAIYIDAHEYDLKEIEKAFADGAGSLLFCNPHNPLGTVFSEEYIRELTDIAAKYDARIIVDEIHAPLVYEGTHVVAAGVSENAANTCITITATSKAWNTAGLKCAQIFFSNEADVKAWKNLSDITRDGVSILGLIAAETVYNEGEEFLDESIQILKDNRDFAAAELEKLGVKVYAPDSTYLMWLDFAGTKIEEAPSKILREEGKVMLNDGAAFGGFTTCARLNFACSRETLEEGLRRIASVL	not soluble
MGSDKIHHHHHHMKVQFLGAAQTVTGSCYMIEANGVRFAIDCGMHQGNTEIEKRNDDTEIYRPSDIAFFLVTHAHIDHTGLLPAMTRNGFTGPIYCTEPTADLLGIMLQDSAHIQEMEAEWQSRKLSRNGRIKKVEPLYTTEDATRAAEMLRPVDYGNSFEPSPGIRVTYKDAGHILGSAFLELEVTENGRPTRLVFSGDLGRPDALIVNDPQKAAPADYLFLESTYGDRDHKDPRFSRDELAEAIAYSYGNGEKVIIPAFAVERTQEVLYTLYLLHKEGRLPADMPVFVDSPLAIRATEIFRKHPKYYDDNMKKLVDSGEDPLALPNLKYTLNTQDSQALNVRSGPAVIISASGMCNAGRIKHHLRHNLWRPGASIVFVGYQGVGTPGRKIVDGNATVRLFNEDIAVKAKVFTIGSFSAHAGQSQILEWVSAFAHPQMEVFLVHGEEKAQTTLAGLLRERFNLPVSIPGYLEEVTLKPGRESLHQTDEARAHPDVDWEFLLAETEGKVAQLRKRLAGVEKRPWVEQTDIRERLVEINGELLHFLSQL	not soluble
GKVNIIVPQYVRCPDICHYETLIMKSLMIKLFQENSLDDVVFVTVEVDPWRGSLEEADMYIKESTASLGFTPPWIWVGGNMEPLETLYKQLGLSVQLDSSTGLIVHTAGFYIVDRNGILLYYVKVEDEGWKNPGKVADVLEYVVNDALSK	not soluble
MTSVLNSFWLGIKVPLRKAVYWLQYNLLKRKRNAFNILMAEETIDYIVKHECSVCRYGDGEIDMITCLKEGFDESRKSDFQTYDEKLAWRLKQILGNGSDEELNLIVCIPYVWKSHRSLSFTARRFIERSFVNNREMIFASIHPTRLYGDSYFTRFYIDARNKKKKGSYIQHCRQIWQGRDLCIIEGEQSRLGVGNDLFDNAQSIERILCPALDAFAKYDEIMKAACTVNKAKLVLIALGHTATVLAYDLAEVGYQAIDIGHIDIEYEWFLMRAPKKVPVPHKYVNEVPEGRQFSEERNKEYLSQIIYSVK	not soluble
GSHMVPISFVFNRFPRMVRDLAKKMNKEVNFIMRGEDTELDRTFVEEIGEPLLHLLRNAIDHGIEPKEERIAKGKPPIGTLILSARHEGNNVVIEVEDDGRGIDKEKIIRKAIEKGLIDESKAATLSDQEILNFLFVPGFSTKEKVSEVSGRGVGMDVVKNVVESLNGSISIESEKDKGTKVTIRLPLTLAIIQALLVKVNNLVYAIPIANIDTILSISKEDIQRVQDRDVIVIRGEVIPVYRLWEVLQIEHKEELEEMEAVIVRVGNRKYGIVVDDLLGQDDIVIKSLGKVFSEVKEFSGAAILGDGSIALIINVSGIV	soluble
MSLKTFLVCALEPSANLHLKEVLKAYKKDFGEFELHGIYDESLCKEFDLNSKPLYSSHEFSAMGFIEVLPLIFKAKKAIKELANLSFTQKINGILCIDSPAFNIPFAKALKKAGSKIPRIYYILPQVWAWKKGRIPIIESHFDILASILPFDNQFFNKSTYIGHPLLDEIKEFKNQEDINHTFSKKDDEKTIAFLPGSRRSEIRRLMPIFKELSQKFKGKKILCVPSFNLEKLEVYGDISEFKIESNTPKVLKKADFAFICSGTATLEAALVGTPFVLAYKAKAIDIFIAKLFVKLKHIGLANIFCDFAGKEALNPEFLQDKVNVLNLYEAYNKYDYKAFFAKVDFLKEYLQFGSAKNLAKILNEIEGHHHHHH	soluble
MASLAKNLKNVTPNVRRAVVTWDKAERIQRNEEIFKNSESVVHRLPEHYKTRYWETILSDKTPVHYRPPTSRFAHDSFKNVEIELEENPIIGIRTPEGDDGLWGGERVVKGWIESAPYTKKKILPRYWVPKLFFPALKNVVLYSEILDKYIKVTVTERAMRLIDEHFGLDYYILESKEIDLDSKFANSLKREMLLTLTTESYYEENDEKKAYIKEKYADFVIPEREAEWIGLELNEAARKQQDMEDSTAPEPLKYKFEQSLLERLRDGTDEISQELENPEAPMKTESKFGDKMFGKYLNPIGKKLRSATN	not soluble
MIKRNLLVMGLAVLLSACGFQLRGTGTQELSIKELDLSARDAYGTTIKMLKQQLESSGVRVHAGAPYKLVLLSEENSQRTLSYTGGGNSAEYEIGTTLRYEILTHDNLHLLDDKLEVQKVFLHDGNNITGSDQESSETRKEMRRDLIQRMLIRLQLLTPEQLAQLQATAEAKAKAEADALEAARKAEAETPQQSPMELPNQLEHHHHHH	soluble
MGRIAVIGAGVAALAAARSLVLAGRRPLLIAPDREVISRGETLSPAAAALLDRLQWADLLDADSALPSEGRFSVWGDATLRQAAQGVGAWHLDRARFERQMRAKLDNDAIECHPIIVTMLVHHCDGVVLELGDGRVVFADAAIDCSGRAAVSSGAAAGRRRTDRLVAVWRVLDLPDDTEPAAATLIEAVPLGWWYMAPLPGDRMMLGLFTDTDLVPPGAAQDGATWTGLAASTVAIAPRLRSLGLDVSAAREPPQVAPAATVTASRLIEGRILRAGDAAAALDPLGANGLATALWSGMAAAEAALTLTEGEPERADAYERDYLQGIAQHLVSQQAMYAAEPRFADAPFWQRRRAVVSSHPQKETLPLEHHHHHH	not soluble
MIVRSYLYEKLNGDVRCKTCWHRCIIKEGKTGICRVRKNEGGELLVLNYGMASSIALDPIEKKPLNNFKPGSKVLSFGSVSCNFRCLHCQNFEIAFADLDYSYLREIDPDTVLRMCIDRRADGVAWTYNEPAIWHEFALDSSKLVKESGYYVVYVTNGYMTPEAVDQFEGVLDAANVDVKAFSEDFYKKICKAKLEHVLETVEYLHRKGVFVELTYLIIPGENDSREELRDFCRWVADLSPKIPVHFSRFHPDYKMLDKPPTPVEKIEEAVEIAKKEGIEYVYAGNVWGHRYENTYCPNCGELLIEREGFYVYNINLVRDNPPKCPNCGYAQNIIL	not soluble
MGSDKIHHHHHHMIYISKEINTPLYDQIYRQIQGDIISGNLSPGTLLPGIRTLAKTLGVARNTVDKAYTQLAVEGYIIPRKGAGFAVESIRDSKKSAELQPLSSGVSAHPGHEKAEKKLPYDFQYGSFPEEYFPKTAWKKHMLEVLALPHLSAQMTQYQDKQGNLSLRCELQNYLYQTRGVVCTEDQILIGCGLHYSLDTLCKLFAGHKRIAMEEPGYNGAKEVFQNNGFTIRHIPSTPYGLDLSQLKTLAVPIVYVTPSHQFPYGTVLPISKRRELLEWAAEENAYIIEDDYDSEYRYDANPIPSLQSIDGHDRVIYIGTFSKSLSPSLRINYMVLPKSLLPAYHQMFSTYSSPVTWLTQEVLASFLRSGDYTRHVRRMCAAYRKRHDVFVQQLSQHFGPNIVLHGQGAGLHFLVEFAEEVEAEGLIQMAEEAGVRVYPVTPFWSASEACPPNLLFAGYSLLNERQIQEGLRLLKEVWAPVLEIK	not soluble
SLVNLKVNLLLVDYRGYGKSEGEASEEGLYLDSEAVLDYVMTRPDLDKTKIFLFGRSLGGAVAIHLASENSHRISAIMVENTFLSIPHMASTLFSFFPMRYLPLWCYKNKFLSYRKISQCRMPSLFISGLSDQLIPPVMMKQLYELSPSRTKRLAIFPDGTHNDTWQCQGYFTALEQFIKEVVKSHSPEEMAKTSSNVTII	soluble
GPGSMAKKEVVWLGTPTEADGSELSSPFTSRIGGSAVLFREAPTYSIFNCPKCRSSRWVSLLTQIYAPLDVYDRIVYVLICSSCSEGKGSFCFAVRSQNFNPSYVQSSPAPVVGGGEDEGITFVEDGDWGDDDPKYVDEGPNEVCITNLTCTTMADECKVGSPTQSTDVSSVLVPHGTKVPVEGFCYPCFVLNIFEEPPKPKLCYGTVPDQLLKAQQTYGEDAVETTVVEDEDEPLAEKLLRKYVDRIGRVPSQCVRWGPGQKPLRSSPAPIVIPRCPRCSNERRYELQLTSPIIYFLTKGKEEKDHSLHFGSVLVYTCGGNCNVQPYSLEHCVVEDEV	not soluble
MAEGPLEAPFWRKGLLVAGLDEAGRGAWAGPIVVGAVVLPPGEYPFRDSKLLSPKARERLAEKVKEVALAFALGVAEAAEVDRLGVLKATLLAAERALLSLPLAPEALVTDYLPLPTPLPLLSPPKADEKSPTVAAASILAKVHRDRIMDELDRLYPGYGFARHKGYGTQEHQEALLALGPSPVHRKRFAPVAQAPLRFPEAP	soluble
MRPTITALVLTYNGERLLDRCLGSLAFCDRILVVDSFSTDATVAIAQAAGAEVLQRKWEGPGPQFAFALEKISDGWIVSLDQDEICSEELRDSILAATAADSGEAGYWIPRRSWYFDRFLKHSGWYPDHLLRLFRAGRMRVEVSGAHYSFHPDGETGTLTGDILHYPYESFRQHLDKVNDYAQKGADDLRAKGKRGGLCAGLCHGAGRFIRIYIIKRGFLDGRAGFINAIHGAFYAFLKHLRIEEGDWGRPFEHKLEHHHHHH	soluble
MSLKYGIIGAGAMGYRYGVMLQENAGVDVDFIDTWGPNVAKVREQGGVDVARDHQNHHVVPINIYYPEEYQGHPDVWIVFKKQMQLADELKRDASLFHEDQYVFAAMNGMGHFEKIAQYFPENHIIGGTAMIATVLNGPGTVDFMGPKGSEAMHMSKYAGHIDTTTKQVMADFKAADLNPIWSDNFMGMCMSKVVFNAVTNSLCTMFEIQMGQFIEYPGVKDMATQMFNEAYDACERAGIKLIETRQEEIDSVETVSRAYKYHYPSMYQDFSKGRPTEVDYINGYIAKIGREHDYVCRVHEFVTHEVHLAEMMRQYRHPEIPVAEKEGHHHHHH	not soluble
MRTAEFWIGRLGLERHPEGGWYRETYRSEGSYGFNGNSPFGSPRSYATSIFYLLEHGDRSRLHRIRSDEQWYFHAGSPLDVHCFPETGDPSLFTLGDDPNAGQVLHSWVSAGHWFGASLSEQADAPGTYALVSCVVAPGFDFRDLTFADPAALTAQFPAHAQIIEKLSLEHHHHHH	soluble
VVRRLTSPRLEFEAAAIYEYPEHLRSFLNDLPTRPGVYLFHGESDTMPLYIGKSVNIRSRVLSHLRTPDEAAMLRQSRRISWICTAGEIGALLLEARLIKEQQPLFNKRLRRNRQLCALQLNEKRVDVVYAKEVDFSRAPNLFGLFANRRAALQALQTIADEQKLCYGLLGLEPLSRGRACFRSALKRCAGACCGKESHEEHALRLRQSLERLRVVCWPWQGAVALKEQHPEMTQYHIIQNWLWLGAVNSLEEATTLIRTPAGFDHDGYKILCKPLLSGNYEITELDPANDQRAS	soluble
